The values that follow come from publication PMC10179125, “Populus euphratica GLABRA3 Binds PLDδ Promoters to Enhance Salt Tolerance”.

In data set [1] the target is T1, PeGLABRA3 (Populus euphratica, UniProt A0AAJ6UG00 1-628).
T1 sequence: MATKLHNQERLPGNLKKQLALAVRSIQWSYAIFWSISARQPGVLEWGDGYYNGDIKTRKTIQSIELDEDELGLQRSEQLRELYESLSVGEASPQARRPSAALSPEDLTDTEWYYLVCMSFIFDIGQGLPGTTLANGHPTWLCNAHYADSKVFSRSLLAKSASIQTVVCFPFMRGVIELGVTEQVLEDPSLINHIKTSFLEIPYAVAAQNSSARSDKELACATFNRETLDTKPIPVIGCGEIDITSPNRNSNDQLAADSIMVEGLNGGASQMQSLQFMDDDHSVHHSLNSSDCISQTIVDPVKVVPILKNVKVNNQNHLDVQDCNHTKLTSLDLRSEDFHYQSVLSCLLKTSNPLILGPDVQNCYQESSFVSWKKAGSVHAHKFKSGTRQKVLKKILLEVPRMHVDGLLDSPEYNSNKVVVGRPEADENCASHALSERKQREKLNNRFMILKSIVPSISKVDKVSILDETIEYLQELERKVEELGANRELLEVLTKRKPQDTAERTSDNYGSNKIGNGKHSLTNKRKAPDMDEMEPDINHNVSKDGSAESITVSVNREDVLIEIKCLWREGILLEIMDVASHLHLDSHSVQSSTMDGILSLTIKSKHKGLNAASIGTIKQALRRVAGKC
Nature of the data set: EMSA; EMSA on 6% polyacrylamide gel, biotin probes, cold probe 10x; binding buffer, pH, salt and temperature not stated. The conditions noted are these: protein: recombinant; tags: C-terminal His (pET28a); chain copies: 2; label: 3' biotin; blunt.

Data set [2] deals with T1, PeGLABRA3. Nature of the data set: competition; 10x unlabeled probe vs biotin N1; EMSA on 6% polyacrylamide gel, biotin probes, cold probe 10x; binding buffer, pH, salt and temperature not stated. The following applies: protein: recombinant; tags: C-terminal His (pET28a); chain copies: 2; blunt.

B1: PePLDδ promoter G-box probe (dsDNA)
DNA 1: CGCTGATCCGGGTAACTGAAATCAGCTGCTGAGAGATGGAAGAGGAGAAT
DNA 2: ATTCTCCTCTTCCATCTCTCAGCAGCTGATTTCAGTTACCCGGATCAGCG
Take B1: the binding result in data set [1] is given as “binds”.

B2: PePLDδ promoter G-box cold probe (dsDNA)
DNA 1: B1 DNA 1
DNA 2: B1 DNA 2
As for B2, in data set [2], the binding result is given as “binds”.

B3: AtPLDδ promoter G-box probe (dsDNA)
DNA 1: AACTCCCATCACGTCGTCCCTCCACCTGTCCTCTCTTCTCCTTCCTTGCT
DNA 2: AGCAAGGAAGGAGAAGAGAGGACAGGTGGAGGGACGACGTGATGGGAGTT
Consider B3, for which the binding result in data set [1] is on record as “binds”.
